The source of these data is publication PMC7854593, “Molecular mechanism for vitamin C-derived C^5-glyceryl-methylcytosine DNA modification catalyzed by algal TET homologue CMD1” (Nature Communications, 2021).

One data set concerns the target T1, MBP-fused CMD1 (Chlamydomonas reinhardtii, UniProt A0A2K3D5Z7).
T1 construct: full-length CMD1 with N-terminal MBP via alpha-helical linker and C-terminal His6, tags kept; expressed in E. coli; residues 509-532 disordered in apo crystal, C-terminal region partly degraded in crystals
Kind of data set: X-ray crystal structure, crystals soaked with sodium L-ascorbate. As to conditions: Fe2+ in active site; pH 5.0-5.6 citrate; 400 mM soak; binary complex 7CY5 (2.20 A) and ternary complex with 5mC-DNA 7CY8 (2.40 A); lactone form, monodentate via C2-hydroxyl. It counts as binding.

The target in data set [1] is T2, CMD1 (UniProt A0A2K3D5Z7 1-532). Nature of the data set: BLI; range over six structured DNAs; BLI: 20 mM Tris-HCl pH 8.0, 50 mM NaCl, 0.1% Tween-20, 0.5% BSA, 25 C; biotin-DNA on streptavidin sensors, 1:1 fit. As to conditions: protein: recombinant, tags: His6-SUMO, cleaved with ULP1, label: 5'-biotin. (In general: In BLI a coated tip is dipped into the sample, and binding shifts an interference pattern.)
T2 sequence (A0A2K3D5Z7 whole entry): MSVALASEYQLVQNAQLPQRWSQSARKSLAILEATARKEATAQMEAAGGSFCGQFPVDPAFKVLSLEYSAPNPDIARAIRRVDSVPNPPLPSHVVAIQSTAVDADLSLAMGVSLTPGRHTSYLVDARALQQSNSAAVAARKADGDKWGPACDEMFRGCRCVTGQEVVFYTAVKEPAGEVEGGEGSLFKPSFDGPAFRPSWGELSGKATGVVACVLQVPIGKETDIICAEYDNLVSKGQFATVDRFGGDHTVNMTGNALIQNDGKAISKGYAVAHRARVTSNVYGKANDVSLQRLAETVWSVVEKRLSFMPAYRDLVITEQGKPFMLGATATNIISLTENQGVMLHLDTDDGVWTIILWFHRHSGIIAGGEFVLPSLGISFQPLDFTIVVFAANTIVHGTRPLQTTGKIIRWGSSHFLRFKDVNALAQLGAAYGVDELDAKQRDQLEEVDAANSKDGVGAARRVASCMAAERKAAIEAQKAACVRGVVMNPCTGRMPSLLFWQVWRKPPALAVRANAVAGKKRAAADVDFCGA

Data set [2] concerns the target T2, CMD1. Kind of data set: BLI; range over dsDNA1-4; BLI: 20 mM Tris-HCl pH 8.0, 50 mM NaCl, 0.1% Tween-20, 0.5% BSA, 25 C; biotin-DNA on streptavidin sensors, 1:1 fit. As to conditions: protein: recombinant; tags: His6-SUMO, cleaved with ULP1; label: 5'-biotin.
The target in data set [3] is T2, CMD1. Kind of data set: BLI; range over dsDNA5-6; BLI: 20 mM Tris-HCl pH 8.0, 50 mM NaCl, 0.1% Tween-20, 0.5% BSA, 25 C; biotin-DNA on streptavidin sensors, 1:1 fit. As to conditions: protein: recombinant; tags: His6-SUMO, cleaved with ULP1; label: 5'-biotin.
Data set [4] deals with T2, CMD1. Kind of data set: BLI; range over dsDNA7-9; BLI: 20 mM Tris-HCl pH 8.0, 50 mM NaCl, 0.1% Tween-20, 0.5% BSA, 25 C; biotin-DNA on streptavidin sensors, 1:1 fit. The conditions noted are these: protein: recombinant; tags: His6-SUMO, cleaved with ULP1; label: 5'-biotin.
The target in data set [5] is T2, CMD1. Nature of the data set: BLI; BLI: 20 mM Tris-HCl pH 8.0, 50 mM NaCl, 0.1% Tween-20, 0.5% BSA, 25 C; biotin-DNA on streptavidin sensors, 1:1 fit. The conditions noted are these: protein: recombinant, tags: His6-SUMO, cleaved with ULP1, label: 5'-biotin.
The target in data set [6] is T3, MBP-CMD1 (UniProt A0A2K3D5Z7 1-532). The description is as above. As to conditions: protein: recombinant; tags: N-terminal MBP via alpha-helical linker; C-terminal His6; label: 5'-biotin; 10 bp palindromic duplex, 3' overhang 4 nt on both strands.
T3 sequence (A0A2K3D5Z7 whole entry): as above
In data set [7] the target is T3, MBP-CMD1. Kind of data set: crystal structure; Fe2+; BLI: 20 mM Tris-HCl pH 8.0, 50 mM NaCl, 0.1% Tween-20, 0.5% BSA, 25 C; biotin-DNA on streptavidin sensors, 1:1 fit. The conditions noted are these: protein: recombinant; tags: N-terminal MBP via alpha-helical linker; C-terminal His6; 10 bp palindromic duplex, 3' overhang 4 nt on both strands.

T1 sequence (A0A2K3D5Z7 whole entry, the tested form may be a part): as the sequence (A0A2K3D5Z7 whole entry) above

`O=C1O[C@H]([C@@H](O)CO)C(O)=C1O` [VC]: at MBP-fused CMD1, the “X-ray crystal structure, crystals soaked with sodium L-ascorbate” value is “crystals of CMD1 in complex with VC were obtained by soaking the apo CMD1 crystals”.

B1: bubble DNA (structured_DNA)
DNA 1: GCTTTAACTTACATACCCCCCCCCCTAGTATGCGTATTGC
DNA 2: GCAATACGCATACTATTTTTTTTTTTATGTAAGTTAAAGC
Turning to B1, the dissociation constant (Kd) (usually a measure of binding affinity in units of concentration) with CMD1 [1] (bubble) is around 1.38 µM.

B2: dsDNA3 (40 bp, GC-rich) (dsDNA)
DNA 1: GCTGGCCCTGACATGGGTGCCAGCGTAGTGCGCGTAGCGC
DNA 2: GCGCTACGCGCACTACGCTGGCACCCATGTCAGGGCCAGC
With B2, in the data set with CMD1 [2], the Kd is around 2.22 µM.

B3: Y-DNA (structured_DNA)
DNA 1: GCTTTAACTTACATAAATGCCAATATAGTATGCGTATTGC
DNA 2: TACCGCATACGCCTATATTGGCATTTATGTAAGTTAAAGC
B3: the Kd with CMD1 [1] (fork) was around 1.38 µM.

B4: dsDNA5 (40 bp, 5mC) (dsDNA)
DNA 1: GCTTTAACTTACATAAATGCCAATATAGTATGCGTATTGC
DNA 2: GCAATACGCATACTATATTGGCATTTATGTAAGTTAAAGC
modifications: one or two 5mC
In the case of B4, in the data set with CMD1 [3], the equilibrium dissociation constant (Kd) was around 2.4 µM.

B5: dsDNA1 (40 bp, AT-rich) (dsDNA)
DNA 1: GCTTTAACTTACATAAATGCCAATATAGTATGCGTATTGC
DNA 2: GCAATACGCATACTATATTGGCATTTATGTAAGTTAAAGC
For B5, the dissociation constant (Kd) with CMD1 [2] was around 2.22 µM.

B6: 5'-flap DNA (structured_DNA)
DNA 1: GCTTTAACTTACATAAATGCCAATATAGTATGCGTATTGC
DNA 2: TACCGCATACGCCTATATTGGCATTTATGTAAGTTAAAGC
DNA 3: GCAATACGCATA
With B6, the equilibrium dissociation constant (Kd) with CMD1 [1] (5' flap) is around 1.38 µM.

B7: 3'-flap DNA (structured_DNA)
DNA 1: GCTTTAACTTACATAAATGCCAATATAGTATGCGTATTGC
DNA 2: TACCGCATACGCCTATATTGGCATTTATGTAAGTTAAAGC
DNA 3: GCGTATGCGGTA
In the case of B7, in the data set with CMD1 [1] (3' flap), the Kd was around 1.38 µM.

B8: dsDNA6 (40 bp, 5mC) (dsDNA)
DNA 1: GCTTTAACTTACATAAATGCCAATATAGTATGCGTATTGC
DNA 2: GCAATACGCATACTATATTGGCATTTATGTAAGTTAAAGC
modifications: one or two 5mC
With B8, the Kd with CMD1 [3] was around 2.4 µM.

B9: dsDNA8 (10-30 bp) (dsDNA)
DNA 1: ACTTACTGCCAATATAGTAT
DNA 2: ATACTATATTGGCAGTAAGT
Consider B9, for which the Kd in the data set with CMD1 [4] is around 1.93 µM.

B10: dsDNA4 (40 bp, GC-rich) (dsDNA)
DNA 1: GACATCGGCGCGGGGTTCAGCCCCGGCCGTATTGGGGCTC
DNA 2: GAGCCCCAATACGGCCGGGGCTGAACCCCGCGCCGATGTC
In the case of B10, in the data set with CMD1 [2], the Kd is around 2.22 µM.

B11: dsDNA9 (10-30 bp) (dsDNA)
DNA 1: AACTTACATAAATGCCAATATAGTATGCGT
DNA 2: ACGCATACTATATTGGCATTTATGTAAGTT
As to B11, in the data set with CMD1 [4], the equilibrium dissociation constant (Kd) was around 1.93 µM.

B12: 14-nt 5mC-DNA (BLI) (dsDNA)
DNA 1: CCCGCGCGGGATGT
DNA 2: CCCGCGCGGGATGT
modifications: 5mC at position 3 of both strands
For the molecule B12, the Kd is 2.01 ± 0.11 µM in the data set with CMD1 [5] (10 bp palindromic duplex, 3' overhang 4 nt on both strands) and 0.81 ± 0.03 µM with MBP-CMD1 [6].

B13: 14-nt DNA (crystal), unmodified (dsDNA)
DNA 1: CCCGCGCGGGATGT
DNA 2: CCCGCGCGGGATGT
Consider B13, for which the binding result in the data set with MBP-CMD1 [7] is given as “binds”.

For the molecule TTTTTTCTTTTTTCTTTTTTCTTTTTTCTTTTTTCTTTTT (ssDNA) [ssDNA (40 nt)], the Kd in the data set with CMD1 [5] is 2.77 µM.

B14: dsDNA2 (40 bp, AT-rich) (dsDNA)
DNA 1: ATACTTACGAATCTGAACTTAGATCCTAATATACATTCTA
DNA 2: TAGAATGTATATTAGGATCTAAGTTCAGATTCGTAAGTAT
Take B14: the Kd with CMD1 [2] is around 2.22 µM.
